According to US20210087295A1 (University of Pennsylvania, published 2021):

How the values were obtained:
[1] = molecular target: T1, human fibroblast activation protein (FAP) (human, UniProt Q12884 1-760); assay: flow cytometry, hybridoma supernatant on human primary fibroblasts and BALB/c 3T3 cells with a human FAP transgene
T1 construct: whole, on cells; also called human FAP; huFAP
T1 sequence (looked up): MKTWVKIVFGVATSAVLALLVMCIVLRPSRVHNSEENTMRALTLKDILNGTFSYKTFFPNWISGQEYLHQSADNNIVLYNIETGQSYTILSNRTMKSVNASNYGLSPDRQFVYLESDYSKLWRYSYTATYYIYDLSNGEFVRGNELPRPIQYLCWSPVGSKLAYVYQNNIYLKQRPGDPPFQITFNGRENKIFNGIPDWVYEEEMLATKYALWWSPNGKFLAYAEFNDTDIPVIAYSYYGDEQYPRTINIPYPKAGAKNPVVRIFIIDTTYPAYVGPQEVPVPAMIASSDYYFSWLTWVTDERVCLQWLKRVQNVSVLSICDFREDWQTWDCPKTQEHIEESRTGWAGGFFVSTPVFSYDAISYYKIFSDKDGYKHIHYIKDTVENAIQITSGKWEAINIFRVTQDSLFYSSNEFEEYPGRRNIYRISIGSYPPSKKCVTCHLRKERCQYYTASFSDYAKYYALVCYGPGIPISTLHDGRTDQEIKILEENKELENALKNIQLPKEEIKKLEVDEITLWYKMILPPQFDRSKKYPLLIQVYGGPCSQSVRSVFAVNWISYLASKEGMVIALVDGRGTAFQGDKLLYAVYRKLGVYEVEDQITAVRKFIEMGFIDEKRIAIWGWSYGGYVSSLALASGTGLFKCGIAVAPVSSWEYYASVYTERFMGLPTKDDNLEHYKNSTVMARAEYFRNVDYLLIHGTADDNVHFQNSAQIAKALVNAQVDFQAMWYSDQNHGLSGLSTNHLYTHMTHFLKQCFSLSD
Protocol: (§1) BALB/c 3T3 cells expressing full-length canine FAP were used to immunize 14 week old BALB/c.FAP^{-/-} mice. All injections were given intraperitoneally and consisted of 1×10⁷ cells in 0.5 ml sterile PBS. An initial immunization was followed by boosts on days 14 and 28; animals were then bled on day 42 followed a boost on day 56, bleeding on day 63, and three more boosts on days 70, 217, and 238. On day 241, […] spleens were harvested, a single cell suspension prepared, and splenocytes fused with sp2/0 cells by the UPENN Hybridoma Core Facility. Hybridoma supernatant were initially screened by FACS on MC KOSA parental (FAP null) vs. canine FAP-transgene expressing MC KOSA.K9FAP using hybridoma supernatants as the primary antibodies and AF488 goat anti-mouse IgG as a secondary. Clone 4G5 was identified as reactive to transduced cells but not parental cells and screened on additional cells to confirm reactivity with FAP expressing but not FAP-negative cells: Human primary fibroblasts, BALB/c 3T3 expressing murine or human FAP transgenes, canine primary fibroblasts, SK KOSA (FAP expressing), and BALB/c 3T3 (FAP negative) cells. 4G5 was then determined to be an IgG1k isotype antibody using Thermo Fisher Rapid ELISA Mouse mAb Isotyping Kit #37503.
(§2) BALB/c 3T3 fibroblast cells transduced to express full-length canine FAP were used to immunize 14 week old BALB/c FAP^{-/-} mice. […]

[2] = molecular target: T2, murine fibroblast activation protein (FAP) (mouse, UniProt P97321 1-761); assay: flow cytometry, hybridoma supernatant on BALB/c 3T3 cells with a murine FAP transgene
T2 construct: whole, on cells; also called mouse FAP; muFAP
T2 sequence (looked up): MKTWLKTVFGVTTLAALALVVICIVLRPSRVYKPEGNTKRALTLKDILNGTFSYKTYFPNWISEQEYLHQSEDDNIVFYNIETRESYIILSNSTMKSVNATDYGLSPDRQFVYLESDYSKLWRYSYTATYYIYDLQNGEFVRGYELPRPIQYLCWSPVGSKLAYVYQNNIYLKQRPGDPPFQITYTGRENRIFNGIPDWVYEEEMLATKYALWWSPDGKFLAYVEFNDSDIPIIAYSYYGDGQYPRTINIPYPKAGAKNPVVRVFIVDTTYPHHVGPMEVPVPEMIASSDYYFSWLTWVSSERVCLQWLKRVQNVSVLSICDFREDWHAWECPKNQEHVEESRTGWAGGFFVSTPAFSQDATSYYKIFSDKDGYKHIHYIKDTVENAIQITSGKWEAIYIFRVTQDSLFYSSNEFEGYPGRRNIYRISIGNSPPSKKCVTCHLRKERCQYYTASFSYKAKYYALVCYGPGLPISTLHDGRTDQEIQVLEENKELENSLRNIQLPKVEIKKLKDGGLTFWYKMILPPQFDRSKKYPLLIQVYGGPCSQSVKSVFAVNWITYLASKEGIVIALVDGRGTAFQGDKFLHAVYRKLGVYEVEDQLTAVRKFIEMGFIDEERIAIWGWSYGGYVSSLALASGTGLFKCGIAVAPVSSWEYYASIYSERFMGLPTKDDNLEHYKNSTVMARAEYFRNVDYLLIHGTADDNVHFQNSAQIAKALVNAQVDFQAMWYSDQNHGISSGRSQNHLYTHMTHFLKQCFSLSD
Protocol: as §1, §2

binding result [1]: binds
binding result [2]: binds
B1: clone 4G5 anti-FAP antibody (antibody, mouse IgG1, V domains shown)
VH: QVQLQQPGAELVKPGASVKLSCKASGYTITSYSLHWVKQRPGQGLEWIGEINPANGDHNFSEKFEIKATLTVDSSSNTAFMQLSRLTSEDSAVYYCTRLDDSRFHWYFDVWGAGTTVTVSS
VL: QIVLTQSPALMSASPGEKVTMTCTASSSVSYMYWYQQKPRSSPKPWIFLTSNLASGVPARFSGRGSGTSFSLTISSMEAEDAATYYCQQWSGYPPITFGSGTKLEIK
notes: Mouse IgG1 kappa antibody from a hybridoma, used as hybridoma supernatant in flow cytometry; also called 4G5 immunoglobulin; monoclonal 4G5 antibody
